Article PMC9508125, “The evolutionary advantage of an aromatic clamp in plant family 3 glycoside exo-hydrolases” (Nature Communications, 2022)

What was measured:
[1] = substrate: O=[N+]([O-])c1ccc(O[C@@H]2O[C@H](CO)[C@@H](O)[C@H](O)[C@H]2O)cc1; assay: Steady-state apparent kinetic constants with substrates; format: biochemical, Hordeum vulgare; settings: substance is the substrate, pH 5.25, 30.0 °C
[2] = substrate: OC[C@H]1O[C@@H](O[C@H]2[C@H](O)[C@@H](CO)OC(O)[C@@H]2O)[C@H](O)[C@@H](O)[C@@H]1O; assay: as above; format: biochemical, Hordeum vulgare; settings: substance is the substrate, pH 5.25, 30.0 °C

Row | Protein | Km ([1]; other: W286F/W434F) [µM] | kcat ([1]; other: W286F/W434F) [s⁻¹] | kcat/Km ([1]; other: W286F/W434F) [M⁻¹ s⁻¹] | Km ([2]; other: W286F/W434F) [µM] | kcat ([2]; other: W286F/W434F) [s⁻¹] | kcat/Km ([2]; other: W286F/W434F) [M⁻¹ s⁻¹] | Km ([1]; other: W286F/W434A) [µM] | kcat ([1]; other: W286F/W434A) [s⁻¹] | kcat/Km ([1]; other: W286F/W434A) [M⁻¹ s⁻¹] | Km ([2]; other: W286F/W434A) [µM] | kcat ([2]; other: W286F/W434A) [s⁻¹] | kcat/Km ([2]; other: W286F/W434A) [M⁻¹ s⁻¹]
1 | HvExoI W286F/W434F mutant (Hordeum vulgare subsp. vulgare; W311F/W459F) (protein) DYVLYKDATKPVEDRVADLLGRMTLAEKIGQMTQIERLVATPDVLRDNFIGSLLSGGGSVPRKGATAKEWQDMVDGFQKACMSTRLGIPMIYGIDAVHGQNNVYGATIFPHNVGLGATRDPYLVKRIGEATALEVRATGIQYAFAPCIAVCRDPRWGRCYESYSEDRRIVQSMTELIPGLQGDVPKDFTSGMPFVAGKNKVAACAKHFVGDGGTVDGINENNTIINREGLMNIHMPAYKNAMDKGVSTVMISYSSWNGVKMHANQDLVTGYLKDTLKFKGFVISDFEGIDRITTPAGSDYSYSVKASILAGLDMIMVPNNYQQFISILTGHVNGGVIPMSRIDDAVTRILRVKFTMGLFENPYADPAMAEQLGKQEHRDLAREAARKSLVLLKNGKTSTDAPLLPLPKKAPKILVAGSHADNLGYQCGGWTIEFQGDTGRTTVGTTILEAVKAAVDPSTVVVFAENPDAEFVKSGGFSYAIVAVGEHPYTETKGDNLNLTIPEPGLSTVQAVCGGVRCATVLISGRPVVVQPLLAASDALVAAWLPGSEGQGVTDALFGDFGFTGRLPRTWFKSVDQLPMNVGDAHYDPLFRLGYGLTTNATKKY | 600 ± 100 | 0.7 ± 0.02 | 1200 ± 200 | 200 ± 20 | 0.5 ± 0.04 | 3000 ± 600 |  |  |  |  |  | 
2 | HvExoI W286F/W434A mutant (Hordeum vulgare subsp. vulgare; W311F/W459A) (protein) DYVLYKDATKPVEDRVADLLGRMTLAEKIGQMTQIERLVATPDVLRDNFIGSLLSGGGSVPRKGATAKEWQDMVDGFQKACMSTRLGIPMIYGIDAVHGQNNVYGATIFPHNVGLGATRDPYLVKRIGEATALEVRATGIQYAFAPCIAVCRDPRWGRCYESYSEDRRIVQSMTELIPGLQGDVPKDFTSGMPFVAGKNKVAACAKHFVGDGGTVDGINENNTIINREGLMNIHMPAYKNAMDKGVSTVMISYSSWNGVKMHANQDLVTGYLKDTLKFKGFVISDFEGIDRITTPAGSDYSYSVKASILAGLDMIMVPNNYQQFISILTGHVNGGVIPMSRIDDAVTRILRVKFTMGLFENPYADPAMAEQLGKQEHRDLAREAARKSLVLLKNGKTSTDAPLLPLPKKAPKILVAGSHADNLGYQCGGWTIEAQGDTGRTTVGTTILEAVKAAVDPSTVVVFAENPDAEFVKSGGFSYAIVAVGEHPYTETKGDNLNLTIPEPGLSTVQAVCGGVRCATVLISGRPVVVQPLLAASDALVAAWLPGSEGQGVTDALFGDFGFTGRLPRTWFKSVDQLPMNVGDAHYDPLFRLGYGLTTNATKKY |  |  |  |  |  |  | 700 ± 40 | 1.9 ± 0.1 | 2500 ± 200 | 700 ± 200 | 0.2 ± 0.02 | 200 ± 30
